{"source": "patent CN111138528A", "about": "(INST MILITARY MEDICINE ACADEMY MILITARY SCIENCES PLA, dated 2020)", "binders": {"B1": {"name": "单克隆抗体5A8 (antibody, V domains shown)", "VH": "EVQLLESGGGLVKPGGSLRLSCAASGFTFSDYYMNWIRQAPGKGLEWVSYISSSGKTIYYADSVKGRFTISRDNAKKSLYLQMNSLRAEDTAVYYCARDREIVISTTILLGSDHYAMDVWGQGTTVTVSS", "VL": "DIQMTQSPFTLSASVGDRVTITCRASQSINSYLNWYQQKPGKAPKLLIYSASSLQSGVPSRFSGSGSGTDFTLTISSLQPEDFAIYYCQQTYRTPYTFGQGTKVEIKT"}}, "key": {"[1]": {"biological_target": "T1, SUDV GP (SUDV, UniProt Q7T9D9 33-650)", "T1 sequence": "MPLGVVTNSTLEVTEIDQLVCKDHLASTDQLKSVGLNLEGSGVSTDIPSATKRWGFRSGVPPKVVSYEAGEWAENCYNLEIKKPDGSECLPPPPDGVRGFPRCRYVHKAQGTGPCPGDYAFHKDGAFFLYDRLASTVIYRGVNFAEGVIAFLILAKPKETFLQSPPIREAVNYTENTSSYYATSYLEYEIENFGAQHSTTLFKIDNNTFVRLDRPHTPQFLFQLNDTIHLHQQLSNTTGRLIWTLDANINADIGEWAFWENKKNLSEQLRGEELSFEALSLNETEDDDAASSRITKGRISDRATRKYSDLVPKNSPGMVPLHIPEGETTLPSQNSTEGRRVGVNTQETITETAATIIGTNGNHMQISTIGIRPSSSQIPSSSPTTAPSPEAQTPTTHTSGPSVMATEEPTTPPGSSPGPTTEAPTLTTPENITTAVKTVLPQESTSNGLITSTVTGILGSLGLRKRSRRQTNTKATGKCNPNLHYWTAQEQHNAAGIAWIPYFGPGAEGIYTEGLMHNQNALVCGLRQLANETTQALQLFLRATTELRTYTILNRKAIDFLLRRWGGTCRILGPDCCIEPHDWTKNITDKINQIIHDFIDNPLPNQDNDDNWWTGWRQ", "test": "ELISA, GP coated at 1 μg/mL, 5A8 in 1:3 dilutions"}, "[2]": {"biological_target": "T2, RESTV GP (RESTV, UniProt Q66799 34-651)", "T2 sequence": "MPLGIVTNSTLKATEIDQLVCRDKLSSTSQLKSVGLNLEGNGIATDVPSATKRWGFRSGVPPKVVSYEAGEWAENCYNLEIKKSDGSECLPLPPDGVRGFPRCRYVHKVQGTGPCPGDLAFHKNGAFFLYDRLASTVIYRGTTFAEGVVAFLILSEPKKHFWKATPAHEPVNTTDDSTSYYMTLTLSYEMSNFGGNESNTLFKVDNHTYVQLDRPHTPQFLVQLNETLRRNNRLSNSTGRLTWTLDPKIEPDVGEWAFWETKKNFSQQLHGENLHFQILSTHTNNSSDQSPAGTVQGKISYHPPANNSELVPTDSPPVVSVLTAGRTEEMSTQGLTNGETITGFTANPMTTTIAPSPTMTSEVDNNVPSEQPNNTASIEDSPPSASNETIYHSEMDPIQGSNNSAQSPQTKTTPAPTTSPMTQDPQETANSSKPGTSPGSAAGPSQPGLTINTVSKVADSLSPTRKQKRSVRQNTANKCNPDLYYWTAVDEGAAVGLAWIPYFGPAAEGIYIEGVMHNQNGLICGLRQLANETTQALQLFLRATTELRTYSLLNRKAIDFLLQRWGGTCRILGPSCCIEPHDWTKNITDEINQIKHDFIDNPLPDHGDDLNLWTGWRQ", "test": "ELISA, GP coated at 1 μg/mL, 5A8 in 1:3 dilutions"}, "[3]": {"biological_target": "GP 227-295 (Ebola virus (EBOV), UniProt Q05320 227-295)", "test": "ELISA, truncated GP coated, 5A8 titrated (method of Example 2)"}, "[4]": {"biological_target": "GP 158-295 (Ebola virus (EBOV), UniProt Q05320 158-295)", "test": "ELISA, truncated GP coated, 5A8 titrated (method of Example 2)"}, "[5]": {"biological_target": "GP 95-295 (Ebola virus (EBOV), UniProt Q05320 95-295)", "test": "ELISA, truncated GP coated, 5A8 titrated (method of Example 2)"}, "[6]": {"biological_target": "GP 33-310;463-558 (Ebola virus (EBOV), UniProt Q05320 33-310; Q05320 463-558)", "test": "ELISA, truncated GP coated, 5A8 titrated (method of Example 2)"}, "[7]": {"biological_target": "sGP (Ebola virus (EBOV), UniProt P60170 33-324)", "test": "ELISA, truncated GP coated, 5A8 titrated (method of Example 2)"}, "[8]": {"biological_target": "GP1 (Ebola virus (EBOV), UniProt Q05320 33-501)", "test": "ELISA, truncated GP coated, 5A8 titrated (method of Example 2)"}, "[9]": {"biological_target": "T3, EBOV GP (Ebola virus (EBOV), UniProt Q05320 33-650)", "T3 sequence": "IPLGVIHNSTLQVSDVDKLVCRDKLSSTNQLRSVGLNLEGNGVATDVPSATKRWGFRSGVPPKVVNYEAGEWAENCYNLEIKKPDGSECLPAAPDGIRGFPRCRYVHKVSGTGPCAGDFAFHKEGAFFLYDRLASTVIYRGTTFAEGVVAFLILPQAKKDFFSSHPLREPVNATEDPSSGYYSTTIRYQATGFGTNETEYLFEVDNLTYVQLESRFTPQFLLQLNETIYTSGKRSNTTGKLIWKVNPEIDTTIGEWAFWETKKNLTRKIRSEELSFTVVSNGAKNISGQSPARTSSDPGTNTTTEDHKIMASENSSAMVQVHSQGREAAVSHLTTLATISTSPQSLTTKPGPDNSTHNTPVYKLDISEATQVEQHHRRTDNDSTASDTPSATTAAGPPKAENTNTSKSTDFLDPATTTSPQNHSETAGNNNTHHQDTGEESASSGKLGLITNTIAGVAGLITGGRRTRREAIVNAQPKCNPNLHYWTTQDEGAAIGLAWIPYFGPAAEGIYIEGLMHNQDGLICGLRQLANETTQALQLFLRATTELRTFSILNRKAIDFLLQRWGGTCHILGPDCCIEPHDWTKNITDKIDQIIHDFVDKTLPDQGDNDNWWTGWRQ", "test": "ELISA, GP coated at 1 μg/mL, 5A8 from 10 μg/mL in 1:3 dilutions"}}, "data": [{"binder": "B1", "values": [{"measurement": "binding result", "setting": "[1]", "value": "no binding (tested: 10μg/mL (highest concentration tested))"}, {"measurement": "binding result", "setting": "[2]", "value": "no binding (tested: 10μg/mL (highest concentration tested))"}, {"measurement": "EC50", "setting": "[3]", "value": 0.0126, "unit": "µg/mL"}, {"measurement": "EC50", "setting": "[4]", "value": 0.02, "unit": "µg/mL"}, {"measurement": "EC50", "setting": "[5]", "value": 7.1, "unit": "ng/mL"}, {"measurement": "EC50", "setting": "[6]", "value": 4.9, "unit": "ng/mL"}, {"measurement": "EC50", "setting": "[7]", "value": 7.5, "unit": "ng/mL"}, {"measurement": "EC50", "setting": "[8]", "value": 6.9, "unit": "ng/mL"}, {"measurement": "EC50", "setting": "[9]", "value": 0.014, "unit": "µg/mL"}]}]}
